Source: article PMC4570711

These substances were tested against human TrkA receptor (human) (UniProt P04629).
Chain of UniProt P04629 (P04629 33-796): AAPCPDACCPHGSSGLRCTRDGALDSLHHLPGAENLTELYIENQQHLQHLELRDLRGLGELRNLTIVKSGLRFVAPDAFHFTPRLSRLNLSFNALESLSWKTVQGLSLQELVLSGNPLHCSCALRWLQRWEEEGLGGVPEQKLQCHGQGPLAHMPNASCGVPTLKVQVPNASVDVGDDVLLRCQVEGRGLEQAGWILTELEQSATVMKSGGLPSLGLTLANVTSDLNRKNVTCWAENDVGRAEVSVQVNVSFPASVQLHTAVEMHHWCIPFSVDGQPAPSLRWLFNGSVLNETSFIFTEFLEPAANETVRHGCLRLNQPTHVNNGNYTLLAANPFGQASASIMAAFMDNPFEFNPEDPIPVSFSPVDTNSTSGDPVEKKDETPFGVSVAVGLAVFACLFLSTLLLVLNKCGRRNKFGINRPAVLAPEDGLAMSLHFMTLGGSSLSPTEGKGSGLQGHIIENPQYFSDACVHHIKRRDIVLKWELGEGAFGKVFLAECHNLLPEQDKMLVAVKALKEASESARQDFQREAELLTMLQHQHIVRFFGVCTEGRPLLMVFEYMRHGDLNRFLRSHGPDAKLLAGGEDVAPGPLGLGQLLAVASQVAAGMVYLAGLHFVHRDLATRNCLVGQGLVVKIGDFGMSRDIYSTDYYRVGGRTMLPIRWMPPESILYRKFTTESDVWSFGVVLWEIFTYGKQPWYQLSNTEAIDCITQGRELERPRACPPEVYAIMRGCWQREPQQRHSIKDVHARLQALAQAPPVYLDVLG
Substance “human Nerve Growth Factor P61S R100E double mutant (ligand)” has a TF1 cell proliferation, C50 (concentration of hNGF giving half of the maximum effect; 0.1–200 ng/ml) of 8.1 ng/mL.
Substance “human Nerve Growth Factor P61S mutant (ligand)” has a TF1 cell proliferation, C50 (concentration of hNGF giving half of the maximum effect; 0.1–200 ng/ml) of 4.3 ng/mL.
“human Nerve Growth Factor R100E mutant ("painless" hNGF) (from UniProt P01138 122-241) (ligand)” showed a TF1 cell proliferation, C50 (concentration of hNGF giving half of the maximum effect; 0.1–200 ng/ml) of 10.9 ng/mL.
